# Results: the RNAGym collection of RNA variant scans (doi:10.1073/pnas.2313332121)
# B1: TPR t1 (parent)
# chain: GACCAAUCUGCCCUCAGAGCUCGAGAACAUCUUCGGAUGCAGAGGAGGCAGGCUUCGGUGGCGCGAUAGCGCCAACGUCCUCAACCUCCAAUGCAUCCCACCACAUGAUGAUGCCUGAAGAGCCUUGGUUUUUUG
# Variants of: B1
# Assay: polymerase ribozyme fitness, log enrichment relative to wild type (log ratio); higher = more active; in vitro selection for triplet polymerase activity
# Summary of the method: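 A heterodimeric triplet polymerase ribozyme had each of its subunits mutagenized by PCR into a library, which was transcribed. One round of in vitro selection, done in triplicate, annealed each library with a biotinylated primer, its partner subunit and triplets, then incubated it frozen at −7 °C before gel excision of extended constructs, streptavidin-bead capture and RT-PCR. Fitness is the logarithm of genotype enrichment relative to wild-type enrichment, based on Illumina sequencing of inputs and outputs and inverse-variance-weighted replicate averages. A base-2 logarithm is used, and genotypes were kept only with ≥10 input reads and ≥1 read per output.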
row,Variant,polymerase ribozyme fitness (log ratio)
1,C22A A26U A27U C76U A95G G110A,-6.96
2,C22A C53A G110C U131A,-5.4
3,G23A C64G C115U C123G,-6.62
4,U21G G47A C114A C123G U125A,-1.52
5,U21A G63C,-0.995
6,C22U G39A C64U C99U U130C,-6.29
7,U21G U59A A83U C123U U131C,-0.796
8,C22G A26G C56G A75G,-5.33
9,C22G C49G,-3.79
10,C22U A50C C102U C124G,-5.01
11,C22U G120U,-3.75
12,C22U G45A A83C,-5.99
13,C22G G45A,-3.31
14,C22G A27U C88U A121U,-2.51
15,C22U A121U,-2.45
16,U21G A24G,-2.02
17,G23A A26G,-4.52
18,C22U U106G C115U,-6.69
19,U21G C56U,-1.08
20,U21A U38A G42A G44A U55G,-2.99
21,U21G U87A U133G G135U,-1.41
22,C22G G71U,-3.63
23,U21G A41U G60C C80U U92C C97A A121U,-8.22
24,U21C C22A C101G G110A,-6.05

row,Variant,polymerase ribozyme fitness (log ratio)
1,C22G G61A C86U C123A,-4.09
2,U21C A41G G44A C56U C98U U112A,-1.55
3,U21G G61U G120U C123A,-1.78
4,C22U A50C C124A,-3.54
5,U21C U96G C114U,-1.48
6,U21A G57U C85U G120U,-2.48
7,U21G A66G C73A C94A,-4.63
8,C22A G120U,-4.24
9,C22A A27C C56U C114A U125A,-4.58
10,U21C A74U G120A,-0.17
11,U21C U92G U96G A100C C124G,-5.43
12,U21G G60A G63C U78A C115U A119U U130A,-4.71
13,U21C U54A C64A U78C G93A A111C,-6.03
14,C22U C72A A100C,-4.76
15,U21G C53U C123G,0.377
16,U21C C101A,-0.445
17,C22G A37C U92C G120C,-4.95
18,C22A C53A C94U G110U,-6.9
19,C22U C56G G60A,-5.5
20,C22G C80A C101U C124A,-3.81
21,C22A G36A C56U,-5.8
22,U21C A41U G120A,-0.65
23,C22A A74G C97U,-4.56
24,C22G C72G C124A,-2.22

row,Variant,polymerase ribozyme fitness (log ratio)
1,C22G C86G G110U A121U,-3.31
2,U21C A37C U81A,-3.15
3,C22A G120U U131A,-4.18
4,U21G C31U U78C C85A U112G,-5.44
5,C22A G61A A83G U96A C114A,-5.1
6,C22G G42C,-3.87
7,C22G C97A,-5.26
8,U21A G71A C88U G93A,-2.14
9,U21G A37C G44U,-3.59
10,G23A A26G C104A,-5.12
11,U21C A29U A84C U112A A119G G120C,-0.885
12,C22G A29C G110U,-4.24
13,U21C G35C C73G A83C,-5.87
14,U21C G113C,-1.14
15,U21C A27U G36C A111U,-4.98
16,U21C C56A C70U G110U,-6.01
17,C22U G69U,-2.26
18,C22G A90U U106A A111U,-3.25
19,U21G G23U A27G A83C U112G,-7.42
20,C22G G52C C79U,-4.14
21,C22G G48A,-3.33
22,C22U G65U C72G C124U,-5.7
23,C22G A84G,-4.29
24,C22G U38G,-4.45

row,Variant,polymerase ribozyme fitness (log ratio)
1,C22A C31G G61A C102A C123G,-7.56
2,C22A A27G C85G A100C C101U G120C G127A,-6.82
3,C22A C73A G120A,-4.58
4,C22A C34G,-6.64
5,C22G A43U,-3.99
6,C22U C56A C72A A83C U96A,-5.56
7,C22G C34U G60U C94A C97U C98G G113U,-6.85
8,C22U G60A,-3.85
9,C22G C80U,-4.33
10,U21G C53U C64U C79A,-3.11
11,U21C U55G U59G G71U C115G,-4.57
12,U21A G117U,-1.55
13,U21G A46C C49G,-3.41
14,C22U A27U G45C U54G C56G G63C A121U,-5.28
15,C22G C56U A105U U112C,-2.05
16,C22A U96G,-4.9
17,C22U G51A,-4.81
18,C22G G57C C89A A95G A111U A121U,-4.42
19,C22G U78A U87A C88A C102A,-5.54
20,C22A G51C C72A,-6.53
21,C22U A105U,-6.8
22,C22G G47U A111C,-5.82
23,C22A U81C,-5.67
24,U21A G135U,-0.915

row,Variant,polymerase ribozyme fitness (log ratio)
1,U21C A27G C123G,-0.817
2,C22G G35C C64U,-6.13
3,U21C G42A U109A G117C,-7.38
4,C22A G52A,-4.45
5,C22A C76U,-4.72
6,U21G C73U,-1.84
7,C22U G39A,-4.66
8,C22U C56G,-3.79
9,C22G A83C,-3.33
10,U21A U106A U132A,-0.182
11,U21C C28U C101G G110C,-5.65
12,U21C A90C,-1.17
13,C22U A74C C79U A121U,-2.29
14,U21G G36A,-2.46
15,C22G C101A,-3.82
16,U21C C22A C88U,-4.68
17,C22A G44C,-4.8
18,U21G G42A A121G,-3.11
19,C22A U112A C114G,-1.84
20,C22G A29U G69C C89A G110U,-5.19
21,G23A C53U,-5.33
22,C22G G35U A121C U132C,-4.9
23,C22U U131A,-3.95
24,U21G A84U C114A,-1.88

row,Variant,polymerase ribozyme fitness (log ratio)
1,C22U C70U,-4.14
2,U21G G61C U87A U133G G135U,-3.09
3,C22A A29G,-4.8
4,C22A C49U,-6.04
5,C22U C101A G122A,-6.14
6,C22A G61U,-5.05
7,U21G C62A C124A U131A,-1.77
8,U21C C22A A43C,-4.05
9,C22U A90U U112G,-7.35
10,C22G G58C,-2.94
11,G23A C31U G122U C124G,-7.15
12,C22A C31G G71U U92C G93A C114U,-6.77
13,U21C A84C C124G U131C,1.43
14,C22G C28U A37U G48A G71A G110C,-5.6
15,U21C C22G C34A C49A A84G C123U U125G U133C,-4.3
16,U21A U130G,0.0378
17,U21A U130A,-0.5
18,C22A G42U G71U G113C,-5.64
19,C22G G93U,-3.03
20,C22U C56G U78A,-3.95
21,U21A G60A A90G,-0.182
22,C22G G36C,-3.09
23,C22G C56G C86U C124U,-3.03
24,C22G U112A A118U,-1.75

row,Variant,polymerase ribozyme fitness (log ratio)
1,C22A G48A G57U C70A A83G A91U C115A,-7.04
2,U21C A37G C62A G117A,-3.01
3,C22U A26U C53U G69C A119G,-6.14
4,C22G A41U G93U,-5.01
5,C22G G47C U59C U92G C97A A111G,-6.83
6,U21C G61C C85A A95U,-4.53
7,C22A A41U A90U A121G,-5.71
8,U21A G60U,-0.289
9,U21A G60U A90G,0.0218
10,C22U C70U C88G,-6.53
11,C22A G63U C101U,-6.16
12,C22U C115U,-4.01
13,C22A G71U,-5.61
14,C22G C56A C73U,-4.49
15,C22G U32G C49A G61U U87C,-4.78
16,U21C G39U C56U C101U U112A,-0.219
17,C22U G52A A84C C104U,-5.74
18,U21C C70U,-0.476
19,C22A A26G G39A G63C C99A C115G,-4.89
20,U21C C28U C72U,-1.89
21,C22G C82A C94G A111U,-4.76
22,U21G C56U A111G U112G,-0.871
23,C22U A91U U112G,-6.06
